Experimental findings from US20230257470A1 (published 2023) are described below.

Common to all, as to test: SPR (Biacore), FcγR over captured antibody; binding amount relative to IL6R-BF648/IL6R-L x100
The target in one test is T1, human FcγRIIb (human, UniProt P31994 43-217, limits assumed).
T1 construct: also called FcyRIfb; FcγIIB
T1 sequence: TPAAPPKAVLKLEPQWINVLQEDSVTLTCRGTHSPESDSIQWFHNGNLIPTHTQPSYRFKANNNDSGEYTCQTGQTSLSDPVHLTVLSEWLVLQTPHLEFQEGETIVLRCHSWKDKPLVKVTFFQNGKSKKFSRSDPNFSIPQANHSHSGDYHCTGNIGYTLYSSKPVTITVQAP

The target in the next test is T2, human FcγRIa (human, UniProt P12314 16-292, limits assumed).
T2 construct: also called FcyRIa; CD64

A further test has as its target T3, human FcγRIIa type H (human, UniProt P12318 36-217).
T3 construct: also called FcyRIIaH; FcγRIIa(H)
T3 sequence: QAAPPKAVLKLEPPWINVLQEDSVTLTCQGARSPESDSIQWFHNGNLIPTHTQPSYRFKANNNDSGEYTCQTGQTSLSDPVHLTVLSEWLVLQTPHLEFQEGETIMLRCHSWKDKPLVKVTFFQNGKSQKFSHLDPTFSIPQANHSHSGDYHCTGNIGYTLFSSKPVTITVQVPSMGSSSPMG

Another test has as its target T4, human FcγRIIIa type V (human, UniProt P08637 17-208, limits assumed).
T4 construct: also called FcyRIIIa; FcγRIIIaV

T2 sequence (P12314 16-292 limits assumed): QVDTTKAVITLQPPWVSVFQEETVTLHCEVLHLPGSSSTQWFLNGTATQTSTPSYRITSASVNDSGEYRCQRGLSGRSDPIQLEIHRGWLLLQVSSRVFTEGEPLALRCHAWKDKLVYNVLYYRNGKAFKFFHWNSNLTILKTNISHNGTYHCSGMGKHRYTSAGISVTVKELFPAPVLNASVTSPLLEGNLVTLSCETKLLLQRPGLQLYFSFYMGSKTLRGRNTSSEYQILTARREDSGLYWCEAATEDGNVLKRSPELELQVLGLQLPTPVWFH
T4 sequence (P08637 other isoform, or with tags, fused parts or gaps limits assumed): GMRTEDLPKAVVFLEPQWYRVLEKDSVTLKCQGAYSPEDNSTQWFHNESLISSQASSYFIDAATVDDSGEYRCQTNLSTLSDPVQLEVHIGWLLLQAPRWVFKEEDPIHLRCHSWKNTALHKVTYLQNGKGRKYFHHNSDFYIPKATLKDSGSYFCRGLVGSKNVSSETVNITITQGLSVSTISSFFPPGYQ

B1: IL6R-BF648/IL6R-L (antibody, human IgG1, name in EU numbering)
heavy: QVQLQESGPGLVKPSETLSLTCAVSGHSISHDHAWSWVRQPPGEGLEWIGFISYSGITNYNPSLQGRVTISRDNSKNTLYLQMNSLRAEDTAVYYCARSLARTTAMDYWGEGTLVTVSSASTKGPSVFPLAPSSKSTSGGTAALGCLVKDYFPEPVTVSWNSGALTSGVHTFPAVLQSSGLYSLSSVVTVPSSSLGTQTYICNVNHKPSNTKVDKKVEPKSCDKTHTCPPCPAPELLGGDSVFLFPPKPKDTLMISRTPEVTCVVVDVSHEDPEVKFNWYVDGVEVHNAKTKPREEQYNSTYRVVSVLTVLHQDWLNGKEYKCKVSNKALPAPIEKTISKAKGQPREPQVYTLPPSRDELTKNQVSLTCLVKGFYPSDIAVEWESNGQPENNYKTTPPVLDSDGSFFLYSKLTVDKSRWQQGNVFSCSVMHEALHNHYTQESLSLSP
light: DIQMTQSPSSLSASVGDRVTITCRASQDISSYLNWYQQKPGKAPKLLIYYTSRLHSGVPSRFSGSGSGTDFTFTISSLQPEDIATYYCQQGNTLPYTFGQGTKVEIK
notes: Alterations are those introduced into IL6R-B3
Turning to B1, the relative binding with human FcγRIIb, with human FcγRIa, with human FcγRIIa type H and in the test with human FcγRIIIa type V was 100 % of IL6R-BF648/IL6R-L throughout.

B2: IL6R-B3/IL6R-L (antibody, human IgG1)
heavy: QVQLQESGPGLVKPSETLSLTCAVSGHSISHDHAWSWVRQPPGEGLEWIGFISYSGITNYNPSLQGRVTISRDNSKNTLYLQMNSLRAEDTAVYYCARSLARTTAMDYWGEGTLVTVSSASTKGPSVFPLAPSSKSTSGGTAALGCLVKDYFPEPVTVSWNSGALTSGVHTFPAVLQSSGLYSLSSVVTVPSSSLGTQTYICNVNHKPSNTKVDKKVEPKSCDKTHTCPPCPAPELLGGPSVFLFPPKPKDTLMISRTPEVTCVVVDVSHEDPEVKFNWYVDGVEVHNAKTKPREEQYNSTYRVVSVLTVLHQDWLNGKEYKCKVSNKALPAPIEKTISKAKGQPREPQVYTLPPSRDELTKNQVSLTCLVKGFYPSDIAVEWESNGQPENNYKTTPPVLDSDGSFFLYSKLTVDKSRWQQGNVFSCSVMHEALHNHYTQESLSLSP
light: DIQMTQSPSSLSASVGDRVTITCRASQDISSYLNWYQQKPGKAPKLLIYYTSRLHSGVPSRFSGSGSGTDFTFTISSLQPEDIATYYCQQGNTLPYTFGQGTKVEIK
notes: IL6R-G1d with K439E (EU numbering)
With B2, the relative binding with human FcγRIIb is 58 % of IL6R-BF648/IL6R-L; in the test with human FcγRIa it was 145 % of IL6R-BF648/IL6R-L; with human FcγRIIa type H, 1600 % of IL6R-BF648/IL6R-L; with human FcγRIIIa type V, 3260 % of IL6R-BF648/IL6R-L.

B3: IL6R-2B169/IL6R-L (antibody, human IgG1, name in EU numbering)
heavy: QVQLQESGPGLVKPSETLSLTCAVSGHSISHDHAWSWVRQPPGEGLEWIGFISYSGITNYNPSLQGRVTISRDNSKNTLYLQMNSLRAEDTAVYYCARSLARTTAMDYWGEGTLVTVSSASTKGPSVFPLAPSSKSTSGGTAALGCLVKDYFPEPVTVSWNSGALTSGVHTFPAVLQSSGLYSLSSVVTVPSSSLGTQTYICNVNHKPSNTKVDKKVEPKSCDKTHTCPPCPAPELLGGDSVFLFPPKPKDTLMISRTPEVTCVVVDVSHEDPEVKFNWYVDGVEVHNAKTKPREEQYNSTYRVVSVLTVLHQDWLNGKEYKCKISNKALPAPIEKTISKAKGQPREPQVYTLPPSRDELTKNQVSLTCLVKGFYPSDIAVEWESNGQPENNYKTTPPVLDSDGSFFLYSKLTVDKSRWQQGNVFSCSVMHEALHNHYTQESLSLSP
light: DIQMTQSPSSLSASVGDRVTITCRASQDISSYLNWYQQKPGKAPKLLIYYTSRLHSGVPSRFSGSGSGTDFTFTISSLQPEDIATYYCQQGNTLPYTFGQGTKVEIK
As to B3, the relative binding is 104 % of IL6R-BF648/IL6R-L in the test with human FcγRIIb, 73 % of IL6R-BF648/IL6R-L in the test with human FcγRIa, 83 % of IL6R-BF648/IL6R-L with human FcγRIIa type H and 94 % of IL6R-BF648/IL6R-L in the test with human FcγRIIIa type V.

B4: IL6R-BP100/IL6R-L (antibody, human IgG1, name in EU numbering)
heavy: QVQLQESGPGLVKPSETLSLTCAVSGHSISHDHAWSWVRQPPGEGLEWIGFISYSGITNYNPSLQGRVTISRDNSKNTLYLQMNSLRAEDTAVYYCARSLARTTAMDYWGEGTLVTVSSASTKGPSVFPLAPSSKSTSGGTAALGCLVKDYFPEPVTVSWNSGALTSGVHTFPAVLQSSGLYSLSSVVTVPSSSLGTQTYICNVNHKPSNTKVDKKVEPKSCDKTHTCPPCPAPELLGGDSVFLFPPKPKDTLMISRTPEVTCVVVDVAHEDPEVKFNWYVDGVEVHNAKTKPREEQYNSTYRVVSVLTVLHQDWLNGKEYKCKVSNKALPAPIEKTISKAKGQPREPQVYTLPPSRDELTKNQVSLTCLVKGFYPSDIAVEWESNGQPENNYKTTPPVLDSDGSFFLYSKLTVDKSRWQQGNVFSCSVMHEALHNHYTQESLSLSP
light: DIQMTQSPSSLSASVGDRVTITCRASQDISSYLNWYQQKPGKAPKLLIYYTSRLHSGVPSRFSGSGSGTDFTFTISSLQPEDIATYYCQQGNTLPYTFGQGTKVEIK
As to B4, the relative binding in the test with human FcγRIIb was 110 % of IL6R-BF648/IL6R-L; in the test with human FcγRIa, 121 % of IL6R-BF648/IL6R-L; in the test with human FcγRIIa type H, 128 % of IL6R-BF648/IL6R-L; in the test with human FcγRIIIa type V, 138 % of IL6R-BF648/IL6R-L.

B5: IL6R-BP102/IL6R-L (antibody, human IgG1, name in EU numbering)
heavy: QVQLQESGPGLVKPSETLSLTCAVSGHSISHDHAWSWVRQPPGEGLEWIGFISYSGITNYNPSLQGRVTISRDNSKNTLYLQMNSLRAEDTAVYYCARSLARTTAMDYWGEGTLVTVSSASTKGPSVFPLAPSSKSTSGGTAALGCLVKDYFPEPVTVSWNSGALTSGVHTFPAVLQSSGLYSLSSVVTVPSSSLGTQTYICNVNHKPSNTKVDKKVEPKSCDKTHTCPPCPAPELLGGDSVFLFPPKPKDTLMISRTPEVTCVVVDVQHEDPEVKFNWYVDGVEVHNAKTKPREEQYNSTYRVVSVLTVLHQDWLNGKEYKCKVSNKALPAPIEKTISKAKGQPREPQVYTLPPSRDELTKNQVSLTCLVKGFYPSDIAVEWESNGQPENNYKTTPPVLDSDGSFFLYSKLTVDKSRWQQGNVFSCSVMHEALHNHYTQESLSLSP
light: DIQMTQSPSSLSASVGDRVTITCRASQDISSYLNWYQQKPGKAPKLLIYYTSRLHSGVPSRFSGSGSGTDFTFTISSLQPEDIATYYCQQGNTLPYTFGQGTKVEIK
With B5, the relative binding in the test with human FcγRIIb was 106 % of IL6R-BF648/IL6R-L; with human FcγRIa, 104 % of IL6R-BF648/IL6R-L; with human FcγRIIa type H, 66 % of IL6R-BF648/IL6R-L; with human FcγRIIIa type V, 86 % of IL6R-BF648/IL6R-L.

B6: IL6R-BP110/IL6R-L (antibody, human IgG1, name in EU numbering)
heavy: QVQLQESGPGLVKPSETLSLTCAVSGHSISHDHAWSWVRQPPGEGLEWIGFISYSGITNYNPSLQGRVTISRDNSKNTLYLQMNSLRAEDTAVYYCARSLARTTAMDYWGEGTLVTVSSASTKGPSVFPLAPSSKSTSGGTAALGCLVKDYFPEPVTVSWNSGALTSGVHTFPAVLQSSGLYSLSSVVTVPSSSLGTQTYICNVNHKPSNTKVDKKVEPKSCDKTHTCPPCPAPELLGGDSVFLFPPKPKDTLMISRTPEVTCVVVDVSNEDPEVKFNWYVDGVEVHNAKTKPREEQYNSTYRVVSVLTVLHQDWLNGKEYKCKVSNKALPAPIEKTISKAKGQPREPQVYTLPPSRDELTKNQVSLTCLVKGFYPSDIAVEWESNGQPENNYKTTPPVLDSDGSFFLYSKLTVDKSRWQQGNVFSCSVMHEALHNHYTQESLSLSP
light: DIQMTQSPSSLSASVGDRVTITCRASQDISSYLNWYQQKPGKAPKLLIYYTSRLHSGVPSRFSGSGSGTDFTFTISSLQPEDIATYYCQQGNTLPYTFGQGTKVEIK
Consider B6, for which the relative binding is 101 % of IL6R-BF648/IL6R-L with human FcγRIIb, 127 % of IL6R-BF648/IL6R-L with human FcγRIIa type H and 127 % of IL6R-BF648/IL6R-L in the test with human FcγRIIIa type V.

B7: IL6R-2B172/IL6R-L (antibody, human IgG1, name in EU numbering)
heavy: QVQLQESGPGLVKPSETLSLTCAVSGHSISHDHAWSWVRQPPGEGLEWIGFISYSGITNYNPSLQGRVTISRDNSKNTLYLQMNSLRAEDTAVYYCARSLARTTAMDYWGEGTLVTVSSASTKGPSVFPLAPSSKSTSGGTAALGCLVKDYFPEPVTVSWNSGALTSGVHTFPAVLQSSGLYSLSSVVTVPSSSLGTQTYICNVNHKPSNTKVDKKVEPKSCDKTHTCPPCPAPELLGGDSVFLFPPKPKDTLMISRTPEVTCVVVDVSHEDPEVKFNWYVDGVEVHNAKTKPREEQYNSTYRVVSVLTVLHQDWLNGKEYKCKMSNKALPAPIEKTISKAKGQPREPQVYTLPPSRDELTKNQVSLTCLVKGFYPSDIAVEWESNGQPENNYKTTPPVLDSDGSFFLYSKLTVDKSRWQQGNVFSCSVMHEALHNHYTQESLSLSP
light: DIQMTQSPSSLSASVGDRVTITCRASQDISSYLNWYQQKPGKAPKLLIYYTSRLHSGVPSRFSGSGSGTDFTFTISSLQPEDIATYYCQQGNTLPYTFGQGTKVEIK
In the case of B7, the relative binding with human FcγRIIb was 132 % of IL6R-BF648/IL6R-L; with human FcγRIa, 140 % of IL6R-BF648/IL6R-L; with human FcγRIIa type H, 179 % of IL6R-BF648/IL6R-L; with human FcγRIIIa type V, 144 % of IL6R-BF648/IL6R-L.

B8: IL6R-2B002/IL6R-L (antibody, human IgG1, name in EU numbering)
heavy: QVQLQESGPGLVKPSETLSLTCAVSGHSISHDHAWSWVRQPPGEGLEWIGFISYSGITNYNPSLQGRVTISRDNSKNTLYLQMNSLRAEDTAVYYCARSLARTTAMDYWGEGTLVTVSSASTKGPSVFPLAPSSKSTSGGTAALGCLVKDYFPEPVTVSWNSGALTSGVHTFPAVLQSSGLYSLSSVVTVPSSSLGTQTYICNVNHKPSNTKVDKKVEPKSCDKTHTCPPCPAPDLLGGDSVFLFPPKPKDTLMISRTPEVTCVVVDVSHEDPEVKFNWYVDGVEVHNAKTKPREEQYNSTYRVVSVLTVLHQDWLNGKEYKCKVSNKALPAPIEKTISKAKGQPREPQVYTLPPSRDELTKNQVSLTCLVKGFYPSDIAVEWESNGQPENNYKTTPPVLDSDGSFFLYSKLTVDKSRWQQGNVFSCSVMHEALHNHYTQESLSLSP
light: DIQMTQSPSSLSASVGDRVTITCRASQDISSYLNWYQQKPGKAPKLLIYYTSRLHSGVPSRFSGSGSGTDFTFTISSLQPEDIATYYCQQGNTLPYTFGQGTKVEIK
With B8, the relative binding was 116 % of IL6R-BF648/IL6R-L with human FcγRIIb, 118 % of IL6R-BF648/IL6R-L with human FcγRIa, 147 % of IL6R-BF648/IL6R-L with human FcγRIIa type H and 147 % of IL6R-BF648/IL6R-L in the test with human FcγRIIIa type V.

B9: IL6R-2B171/IL6R-L (antibody, human IgG1, name in EU numbering)
heavy: QVQLQESGPGLVKPSETLSLTCAVSGHSISHDHAWSWVRQPPGEGLEWIGFISYSGITNYNPSLQGRVTISRDNSKNTLYLQMNSLRAEDTAVYYCARSLARTTAMDYWGEGTLVTVSSASTKGPSVFPLAPSSKSTSGGTAALGCLVKDYFPEPVTVSWNSGALTSGVHTFPAVLQSSGLYSLSSVVTVPSSSLGTQTYICNVNHKPSNTKVDKKVEPKSCDKTHTCPPCPAPELLGGDSVFLFPPKPKDTLMISRTPEVTCVVVDVSHEDPEVKFNWYVDGVEVHNAKTKPREEQYNSTYRVVSVLTVLHQDWLNGKEYKCKLSNKALPAPIEKTISKAKGQPREPQVYTLPPSRDELTKNQVSLTCLVKGFYPSDIAVEWESNGQPENNYKTTPPVLDSDGSFFLYSKLTVDKSRWQQGNVFSCSVMHEALHNHYTQESLSLSP
light: DIQMTQSPSSLSASVGDRVTITCRASQDISSYLNWYQQKPGKAPKLLIYYTSRLHSGVPSRFSGSGSGTDFTFTISSLQPEDIATYYCQQGNTLPYTFGQGTKVEIK
For B9, the relative binding with human FcγRIIb is 113 % of IL6R-BF648/IL6R-L; with human FcγRIa, 116 % of IL6R-BF648/IL6R-L; in the test with human FcγRIIa type H, 115 % of IL6R-BF648/IL6R-L; in the test with human FcγRIIIa type V, 122 % of IL6R-BF648/IL6R-L.
